Data from publication PMC8599806.

Target: RECQL (UniProt P46063)
Assay: ID3 co-IP, Western blot
Details: reference: wild type ID3; sites S65

binding against the reference: lost
Substance: ID3 (from UniProt Q02535) S65A
